Laboratory results from US10772928B2, “Modulation and detection of a neuronal alternative splicing regulatory network for treatment and diagnosis of neurological disorders” (The Governing Council of the University of Toronto, priority 2014, dated 2020).

B1: Fam76b (protein, UniProt Q80XP8 2-339, looked up)
Protein FAM76B: AASALYACTKCTQRYPFEELSQGQQLCKECRIAHPIVKCTYCRSEFQQESKTNTICKKCAQNVKQFGTPKPCQYCNIIAAFIGTKCQRCTNSEKKYGAPQTCEQCKQQCAFDRKEEGRRKVDGKLLCWLCTLSYKRVLQKTKEQRKSLGSSHSNSSSSSLTEKDQHHSKHHHHHHHHHHRHSSGHHKVSSLSPEQEQGLWKQSHKSSAAIQNETPKKKPKLESKPSNGDSSSINQSADSGGTDNFVLISQLKEEVMSLKRLLQQRDQTILEKDKKLTELKADFQYQESNLRTKMNSMEKAHKETVEQLQAKNRELLKQVAALSKGKKFDKSGSVLTSP
B2: Grpel1 (protein, UniProt Q99LP6 28-217, looked up)
GrpE protein homolog 1, …: CTATKQKNNGQNLDEDLGHCEPKTDPPSADKTLLEEKAKLEEQLRETMEKYKRALADTENLRQRSQKLVEEAKLYGIQGFCKDLLEVADILEKATQSVPKEEISNNNPHLKSLYEGLVMTEVQIQKVFTKHGLLRLDPIGAKFDPYEHEALFHTPVEGKEPGTVALVSKVGYKLHGRTLRPALVGVVKDA
B3: Wdr11 (protein, UniProt Q8K1X1 1-1223, looked up)
WD repeat-containing protein …: MLPYTVNFKVSARTLTGALNAHNKAAVDWGWQGLIAYGCHSLVVVIDSNTAQTLQVLEKHKADIVKVRWARENYHHNIGSPYCLRLASADVTGKIIVWDVAAGVAQCEIQEHVKPIQDVQWLWNQDASRDLLLAIHPPNYIVLWNADTGTKLWKKSYADNILSFSFDPFDPSHLTLLTSEGIVFISDFSPSKPPSGPGKKVYISSPHSSPAHNKLAAATGAKKALNKVKILITQEKPSADFVALNDCLQLAYLPSKRNHMLLLYPREILILDLEVNQTVGVIAIERTGVPFLQVIPCSQRDGLFCLHENGCITLRVRRSYNSICTTSNDEPDLDPVQELTYDLRSQCDAIRVTKTVRPFSMVCCPVNENAAALIVSDGRVMIWELKSAVCSRNARNSSGVSPLYSPVSFCGIPGGVLQNKLPDLSLDNMIGQSAIAGEEHPKGSILQEVHLKFLLTGLLSGLPSPQFAIRMCPPLTTKNIKTYQPLLAVGTSNGSVLVYHLTSGLLHKELSVHSCEVKGIEWTSLTSFLSFAASTPNNMGLVRNELQLVDLPTGRSTAFRGDRGNDESPIEMIKVSHLKQYLAVVFKDKPLELWDIRTCTLLREMSKSFPAITALEWSPSHNLKSLRKKQLATREAMARQTVVSDAELGAVESSVISLLQEAESKAELSQNISAREHFVFTDNDGQVYHLTVEGNSVKDSARIPPDGSMGSITCIAWKGDTLVLGDMDGNLNFWDLKARVSRGIPTHRSWVRKIRFAPGKGNQKLIAMYNDGAEVWDTKEVQMVSSLRSGRNVTFRILDVDWCTSDKVILASDDGCIRVLEMSMKSTCFRMDEQELVEPVWCPYLLVPRAALALKAFLLHQPWNGRYSLDISHIDYPENEEIKTLLQEQLHALSNDIKKLLLDPDFSLLQRCLLVSRLYGDESELHFWTVAAHYLHSLSQAKSGDTVVTKEGAPKDRLSNPLDICYDVLCENTYFQKFQLERVNLQEVKRSTYDHTRKCTDQLLLLGQTDRAVQLLLETSADNQHYYCDSLKACLVTTVTSSGPSQSTIKLVATNMIANGKLAEGVQLLCLIDKAADACRYLQTYGEWNRAAWLAKVRLNSEECADVLKRWVDHLCSPQVNQKSKALLVLLSLGCFVSVAETLHSMRYFDRAALFVEACLKYGAFEVSEDTEKLIAAIYADYARSLKSLGFRQGAVRFASKAGAAGRDLLNELGSTKEELTES
B4: Sfswap (protein, UniProt Q3USH5 1-945, looked up)
Splicing factor, suppressor …: MYGAGGGRAKPERKGGVKEEAGPGGTGTGGNRVELLVFGYACKLFRDDERALAQEQGQHLIPWMGDPKILIDRYDGRGHLHDLSAYDAEYATWNRDYQLSEEEARVEALCDEERYLALHTDLLEEEARQEEEYKRLSEALAEDGNYSAVGFTYGSDYYDPSEPTEEEEPSKQREKNEAENLEENEEPFIAPLGLSVPSDVELPPTAKMHAIIERTANFVCKQGAQFEIMLKAKQARNSQFDFLRFDHYLNPYYKFIQKAMKEGRYTVLAESKNEEKKKSGPTSDNEEEDDEEDGSYLHPSLFASKKSSRLEELMKPLKVVDPDHPLAALVRKAQADSSAPAPPTADGTPAQPSQVEYTADSTVAAMYYSYYMLPDGTYCLAPPPPGIDVATYYSTLPAGVTVSSSPGVTTTVPPPPGTTPPPPPTTAEPSSGVTSTTTTTSALAPVAIIPPPPDIQPVIDKLAEYVARNGLKFETSVRAKNDQRFEFLQPWHQYNAYYEFKKQFFLQKEGGGSTQAASTAEEAPTETAVEESGEAGEDGAPEGMAETGGRGSGKKEAGSSKSTVDGKLVKASFAPISFAIKAKENDLLPLEKNRVKLDDDSEEDEESRECQESTSSVANPSPAAAPPSVAVEEKKPQLTQEELEAKQAKQKLEDRLAAAAREKLAQASKESKEKQLQAERKRKAALFLQTLKNPLPEAEVGKLEESTFGVEDTGVMPCPLLVGGRTLPILEGKPPERPSNRCRDPPREEEREKKKKKHKKRSRTRSRSPKYHSSSKPRSRSHSKAKHSLPSAYRTVRRSRSRSRSPRRRAHSPERRREERSVPTAYRMSGSPGVSRKRTRSRSPHEKKKKRRSRSRTKAKARSQSTSPSKQAAQRPSAHSAHSASISPVESRGSSQERSRGVSQEKDGQISSAIVSSVQSKITQDLMAKVRAMLAASKNLQTSAS
B5: Rab5c (protein, UniProt P35278 1-216, looked up)
Ras-related protein Rab-5C: MAGRGGAARPNGPAAGNKICQFKLVLLGESAVGKSSLVLRFVKGQFHEYQESTIGAAFLTQTVCLDDTTVKFEIWDTAGQERYHSLAPMYYRGAQAAIVVYDITNTDTFARAKNWVKELQRQASPNIVIALAGNKADLASKRAVEFQEAQAYADDNSLLFMETSAKTAMNVNEIFMAIAKKLPKNEPQNAAGAPGRTRGVDLQESNPASRSQCCSN
B6: Wbp11 (protein, UniProt Q923D5 1-641, looked up)
WW domain-binding protein 11: MGRRSTSSTKSGKFMNPTDQARKEARKRELKKNKKQRMMVRAAVLKMKDPKQIIRDMEKLDEMEFNPVQQPQLNEKVLKDKRKKLRETFERILRLYEKENPDIYKELRKLEVEYEQKRAQLSQYFDAVKNAQHVEVESIPLPDMPHAPSNILIQDIPLPGAQPPSILKKTSAYGPPARAVSILPLLGHGVPRLPPGRKPPGPPPGPPPPQVLQMYGRKVGFALDLPPRRRDEDMLYSPELAQRGHDDDMSSTSEDDGYPEDMDQDKHDDSTEDSDTDRSDAESDGDEFGHREDSERDNTEEKKSGLSVRFADMPGKSRKKKKNMKELTPLQAMMLRMAGQEIPEEGREVEEFSEEEDADDSDDSEAEKQSQKQHKDDGHSDSTAAASSQQQAPPQSAPASQIQAPPMPGPPPLGPPPAPPLRPPGPPTGLPPGPPPGAPPFLRPPGMPGIRGPLPRLLPPGPPPGRPPGPPPGPPPGLPPGPPPRGPPPRLPPPAPPGIPPPRPGMMRPPLVPPLGPAPPGLFPPAPLPNPGVLSAPPSLIQRPKADDASAATIEKKATATISAKPQITNPKAEVTRFVPTALRVRRENKGATAVPQRRSEDDSAVPVAKAAPRSGPSVAVSVQTKDDVYEAFMKEMEGLL
B7: Ddx6 (protein, UniProt P54823 1-483, looked up)
Probable ATP-dependent RNA …: MSTARTENPVIMGLSSQNGQLRGPVKASAGPGGGGTQPQPQLNQLKNTSTINNGTPQQAQSMAATIKPGDDWKKTLKLPPKDLRIKTSDVTSTKGNEFEDYCLKRELLMGIFEMGWEKPSPIQEESIPIALSGRDILARAKNGTGKSGAYLIPLLERLDLKKDNIQAMVIVPTRELALQVSQICIQVSKHMGGAKVMATTGGTNLRDDIMRLDDTVHVVIATPGRILDLIKKGVAKVDHVQMIVLDEADKLLSQDFVQIMEDIILTLPKNRQILLYSATFPLSVQKFMNSHLQKPYEINLMEELTLKGVTQYYAYVTERQKVHCLNTLFSRLQINQSIIFCNSSQRVELLAKKISQLGYSCFYIHAKMRQEHRNRVFHDFRNGLCRNLVCTDLFTRGIDIQAVNVVINFDFPKLAETYLHRIGRSGRFGHLGLAINLITYDDRFNLKSIEEQLGTEIKPIPSNIDKSLYVAEYHSEPAEDEKP

Target: T1, nSR100 (Mus musculus, UniProt Q8BKA3)
T1 construct: host or cells: mouse N2A cells
T1 sequence (Q8BKA3 1-608): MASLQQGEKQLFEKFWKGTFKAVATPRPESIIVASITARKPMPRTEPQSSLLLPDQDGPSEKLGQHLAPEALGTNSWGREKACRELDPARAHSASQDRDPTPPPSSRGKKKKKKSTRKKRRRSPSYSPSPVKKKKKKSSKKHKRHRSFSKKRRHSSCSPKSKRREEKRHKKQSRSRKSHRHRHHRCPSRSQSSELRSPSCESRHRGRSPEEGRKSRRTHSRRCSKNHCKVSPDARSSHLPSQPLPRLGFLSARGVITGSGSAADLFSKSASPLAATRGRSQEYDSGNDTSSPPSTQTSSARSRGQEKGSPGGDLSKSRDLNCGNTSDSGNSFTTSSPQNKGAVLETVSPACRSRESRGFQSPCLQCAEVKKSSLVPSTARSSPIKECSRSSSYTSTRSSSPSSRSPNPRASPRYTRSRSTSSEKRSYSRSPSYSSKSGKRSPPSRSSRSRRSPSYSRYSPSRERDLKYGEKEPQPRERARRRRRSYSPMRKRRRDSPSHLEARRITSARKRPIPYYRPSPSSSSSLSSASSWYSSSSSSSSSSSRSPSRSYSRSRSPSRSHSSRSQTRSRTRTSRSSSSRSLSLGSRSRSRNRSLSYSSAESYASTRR
Test: AP-MS nSR100 interaction partners from mouse N2A cells (Table 5)
Assay type: binding
Conditions: for AvgP (average of the SAINT scores) / MaxP (maximal SAINT score): bait Srrm4; for FoldChange between the prey Avg spectra of the bait and control purifications: bait Srrm4, 0.1 added to prevent division by 0; for AvgSpec (average number of spectra per replicate): bait Srrm4, 2 replicates; for Spectra (number of spectra for the prey in the purification of the bait): AP-MS; for SpecSum: bait Srrm4, sum of spectra over 2 replicates

[1] = bait Srrm4, biological replicate 1 (first number of the cell)
[2] = bait Srrm4, biological replicate 2 (second number of the cell)

Text: By applying affinity purification coupled to mass-spectrometry (AP-MS), several interaction nSR100 partner proteins were detected that provide insight into mechanisms of post-translational regulation of nSR100 levels.

Row | Molecule | AvgP (average of the SAINT scores) | MaxP (maximal SAINT score) | FoldChange between the prey Avg spectra of the bait and control purifications | AvgSpec (average number of spectra per replicate) | Spectra (number of spectra for the prey in the purification of the bait) [1] | Spectra (number of spectra for the prey in the purification of the bait) [2] | SpecSum
1 | B1 | 0.98 | 1 | 35 | 3.5 | 2 | 5 | 7
2 | B2 | 0.97 | 0.98 | 3.3 | 16.5 | 16 | 17 | 33
3 | B3 | 0.97 | 1 | 30 | 3 | 2 | 4 | 6
4 | B4 | 0.97 | 0.99 | 25 | 2.5 | 2 | 3 | 5
5 | B5 | 0.97 | 0.99 | 25 | 2.5 | 3 | 2 | 5
6 | B6 | 0.97 | 0.99 | 25 | 2.5 | 2 | 3 | 5
7 | B7 | 0.97 | 1 | 30 | 3 | 2 | 4 | 6
